T1: Human TROP2 Protein, His Tag (Acro Biosystems) (human, UniProt P09758 27-274)
T1 construct: also called TACSTD2; not shown: His tag
T1 sequence (looked up): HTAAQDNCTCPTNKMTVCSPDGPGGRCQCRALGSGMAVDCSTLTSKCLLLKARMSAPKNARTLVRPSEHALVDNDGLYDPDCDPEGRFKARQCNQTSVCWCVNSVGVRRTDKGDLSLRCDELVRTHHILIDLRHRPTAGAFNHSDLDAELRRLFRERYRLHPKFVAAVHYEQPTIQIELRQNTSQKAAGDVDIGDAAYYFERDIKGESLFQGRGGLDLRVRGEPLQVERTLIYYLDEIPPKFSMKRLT

T2: Human TROP2 Protein, His Tag (Acro Biosystems) (human, UniProt P09758 27-274)
T2 construct: Bought protein; not shown: His tag
T2 sequence (looked up): T1 sequence (looked up)

T3: Human TROP2 Protein, His Tag (human, UniProt P09758 27-274)
T3 construct: Bought protein; also called TACSTD2; not shown: His tag
T3 sequence (looked up): T1 sequence (looked up)

T4: Human TROP2 Protein, His Tag (Acro Biosystems) (human, UniProt P09758 27-274)
T4 construct: Bought antigen used at 50 nM in the Octet screen; also called TACSTD2; not shown: His tag
T4 sequence (looked up): T1 sequence (looked up)

B1: MYT13367 (antibody, V domains shown)
VH: QVQLQQSGSELKKPGASVKVSCKASGYTFTNYHMNWVKQAPGQGLKWMGWINTYTGEPTYTDDFKGRFAFSLDTSVSTAYLQISSLKADDTAVYFCARGGFGSSYWYFDVWGQGSLVTVSS
VL: DIQLTQSPSSLSASVGDRVSITCKASQDVHIAHAWYQQKPGKAPKLLIYSASYRYTGVPDRFSGSGSGTDFTLTISSLQPEDFAVYYCQQHYITPLTFGAGTKVEIK
notes: Sacituzumab HC-LC pairing variant
B2: MYT11622 (antibody, V domains shown)
VH: B1 VH with H33G
VL: B1 VL with H30S, H33V, Y53H
notes: Sacituzumab variant, His at LCV position 53 (L2 04)
B3: MYT11631 (antibody, V domains shown)
VH: B1 VH with H33G
VL: B1 VL with H30S, H33V, T94H
notes: Sacituzumab variant, His at LCV position 94 (L3 06)
B4: MYT11626 (antibody, V domains shown)
VH: B1 VH with H33G
VL: B1 VL with H30S, H33V, Q89H
notes: Sacituzumab variant, His at LCV position 89 (L3 01)
B5: MYT11627 (antibody, V domains shown)
VH: B1 VH with H33G
VL: B1 VL with H30S, H33V, Q90H
notes: Sacituzumab variant, His at LCV position 90 (L3 02)
B6: MYT11629 (antibody, V domains shown)
VH: B1 VH with H33G
VL: B1 VL with H30S, H33V, Y92H
notes: Sacituzumab variant, His at LCV position 92 (L3 04)
B7: MYT11634 (antibody, V domains shown)
VH: B1 VH with H33G
VL: B1 VL with H30S, H33V, T97H
notes: Sacituzumab variant, His at LCV position 97 (L3 09)
B8: MYT11632 (antibody, V domains shown)
VH: B1 VH with H33G
VL: B1 VL with H30S, H33V, P95H
notes: Sacituzumab variant, His at LCV position 95 (L3 07)
B9: MYT11628 (antibody, V domains shown)
VH: B1 VH with H33G
VL: B1 VL with H30S, H33V, H91A
notes: Sacituzumab variant, Ala at LCV position 91 (L3 03; His in the parent)
B10: MYT11633 (antibody, V domains shown)
VH: B1 VH with H33G
VL: B1 VL with H30S, H33V, L96H
notes: Sacituzumab variant, His at LCV position 96 (L3 08)
B11: MYT11625 (antibody, V domains shown)
VH: B1 VH with H33G
VL: B1 VL with H30S, H33V, T56H
notes: Sacituzumab variant, His at LCV position 56 (L2 07)
B12: MYT11624 (antibody, V domains shown)
VH: B1 VH with H33G
VL: B1 VL with H30S, H33V, Y55H
notes: Sacituzumab variant, His at LCV position 55 (L2 06)
B13: MYT11630 (antibody, V domains shown)
VH: B1 VH with H33G
VL: B1 VL with H30S, H33V, I93H
notes: Sacituzumab variant, His at LCV position 93 (L3 05)
B14: MYT11623 (antibody, V domains shown)
VH: B1 VH with H33G
VL: B1 VL with H30S, H33V, R54H
notes: Sacituzumab variant, His at LCV position 54 (L2 05)
B15: MYT11701 (antibody, V domains shown)
VH: QVQLVQSGAEVKKPGASVKVSCKASGYTFTTAGMQWVRQAPGQGLEWMGWINTHSGVPKYAEDFKGRVTISADTSTSTAYLQLSSLKSEDTAVYYCARSGFGSSYWYFDVWGQGTLVTVSS
VL: B1 VL with L4M, S20T, H30S, I31T, H33V, D60S, P95H, A100Q, V104L
notes: IgG from supernatant; His at LCV position 95; also called datopotamab variant L3 07
B16: MYT11703 (antibody, V domains shown)
VH: B15 VH
VL: B1 VL with L4M, S20T, H30S, I31T, H33V, D60S, T97H, A100Q, V104L
notes: IgG from supernatant; His at LCV position 97; also called datopotamab variant L3 09
B17: MYT11702 (antibody, V domains shown)
VH: B15 VH
VL: B1 VL with L4M, S20T, H30S, I31T, H33V, D60S, L96H, A100Q, V104L
notes: IgG from supernatant; His at LCV position 96; also called datopotamab variant L3 08
B18: MYT11756 (antibody, V domains shown)
VH: QVQLQESGPGLVKPSETLSLTCTVSGGSISSYGVHWIRQPPGKGLEWIGVIWTSGVTDYNSALMGRVTISVDTSKNQFSLKLSSVTAADTAVYYCARDGDYDRYTMDYWGQGTLVTVSS
VL: DIVMTQSPDSLAVSLGERATINCRASKSVSTSGYSHMHWYQQKPGQPPKLLIYLASNLESGVPDRFSGSGSGTDFTLTISSLQAEDVAVYYCQHSRELPYTFGQGTKLEIK
notes: hu7E6SVG variant, His at LCV position 36 (L1 13); screened as IgG in Expi293 supernatant
B19: MYT11759 (antibody, V domains shown)
VH: B18 VH
VL: B18 VL with H36Y, L54H
notes: hu7E6SVG variant, His at LCV position 54 (L2 01); screened as IgG in Expi293 supernatant
B20: MYT11768 (antibody, V domains shown)
VH: B18 VH
VL: B18 VL with H36Y, S95H
notes: hu7E6SVG variant, His at LCV position 95 (L3 03); screened as IgG in Expi293 supernatant
B21: MYT11763 (antibody, V domains shown)
VH: B18 VH
VL: B18 VL with H36Y, L58H
notes: hu7E6SVG variant, His at LCV position 58 (L2 05); screened as IgG in Expi293 supernatant
B22: MYT11761 (antibody, V domains shown)
VH: B18 VH
VL: B18 VL with H36Y, S56H
notes: hu7E6SVG variant, His at LCV position 56 (L2 03); screened as IgG in Expi293 supernatant
B23: MYT11771 (antibody, V domains shown)
VH: B18 VH
VL: B18 VL with H36Y, L98H
notes: hu7E6SVG variant, His at LCV position 98 (L3 06); screened as IgG in Expi293 supernatant
B24: MYT11758 (antibody, V domains shown)
VH: B18 VH
VL: B18 VL with H36Y, H38A
notes: hu7E6SVG variant, Ala in place of His at LCV position 38 (L1 15); screened as IgG in Expi293 supernatant
B25: MYT11772 (antibody, V domains shown)
VH: B18 VH
VL: B18 VL with H36Y, P99H
notes: hu7E6SVG variant, His at LCV position 99 (L3 07); screened as IgG in Expi293 supernatant
B26: MYT11774 (antibody, V domains shown)
VH: B18 VH
VL: B18 VL with H36Y, T101H
notes: hu7E6SVG variant, His at LCV position 101 (L3 09); screened as IgG in Expi293 supernatant
B27: MYT11765 (antibody, V domains shown)
VH: B18 VH
VL: B18 VL with H36Y, S60H
notes: hu7E6SVG variant, His at LCV position 60 (L2 07); screened as IgG in Expi293 supernatant
B28: MYT11760 (antibody, V domains shown)
VH: B18 VH
VL: B18 VL with H36Y, A55H
notes: hu7E6SVG variant, His at LCV position 55 (L2 02); screened as IgG in Expi293 supernatant
B29: MYT11764 (antibody, V domains shown)
VH: B18 VH
VL: B18 VL with H36Y, E59H
notes: hu7E6SVG variant, His at LCV position 59 (L2 06); screened as IgG in Expi293 supernatant
B30: MYT11762 (antibody, V domains shown)
VH: B18 VH
VL: B18 VL with H36Y, N57H
notes: hu7E6SVG variant, His at LCV position 57 (L2 04); screened as IgG in Expi293 supernatant
B31: MYT11767 (antibody, V domains shown)
VH: B18 VH
VL: B18 VL with H36Y, H94A
notes: hu7E6SVG variant, Ala in place of His at LCV position 94 (L3 02); screened as IgG in Expi293 supernatant

Residue numbers refer to the chain shown, from its start.

The target in one assay is T1, Human TROP2 Protein, His Tag (Acro …). Briefly: BLI (Octet) [1/2].
Consider B1, for which the binding result was “binds”.

A further assay concerns the target T2, Human TROP2 Protein, His Tag (Acro …). In words: BLI (Octet).
As for B2, the binding result was “binds”.
Still for that read-out and setting: in the case of B3 it was “binds”; in that of B4, “binds”; in that of B5, “binds”.
Regarding B6, the binding result was “binds”.
In the case of B7, the binding result is “binds”.
As to B8, the binding result is reported as “binds”.
Consider B9, for which the binding result is “binds”.
As for B10, the binding result is recorded as “binds”.
The same measure, in the same setting: in the case of B11 it was “binds”.
Regarding B12, the binding result was “binds”.
For B13, the binding result is recorded as “binds”.
Consider B14, for which the binding result is recorded as “binds”.

The target of another assay is T3, Human TROP2 Protein, His Tag. In words: BLI (Octet) [2/2]. As to the method:
(§1) After allowing for four days of protein expression, cell culture supernatants were collected, quantified by SDS-PAGE analysis (DNS), and the pH dependence of the variant was evaluated using biolayer interferometry (BLI) on an Octet RED 96e instrument. Briefly, cell culture supernatants were diluted based on qualitative expression level of the variant determined by visual examination of SDS-PAGE gels, 5 μL of cell culture supernatant was diluted into 195 μL of 1×PBST, pH 7.4 for high expressors, 25 μL of cell culture supernatant was diluted into 175 μL of 1×PBST, pH 7.4 for medium expressors and 100 μL of cell culture supernatant was diluted into 100 μL of 1×PBST, pH 7.4 for low expressors for loading onto the sensor tips. The resulting diluted supernatants were then captured on an anti-human Fc sensor (Forte Bio). A baseline was established using 1×PBST (50 mM Potassium Phosphate Buffer+150 mM NaCl+0.05% Tween 20) pH 7.4, and the sensor was associated with 50 nM of TROP2 (Human TROP2 Protein, His Tag, Acro Biosystems) in 1×PBST pH 7.4 for 120 sec to generate an association curve. In the dissociation phase, the antibody-antigen complex on the sensor was exposed to 1×PBST pH 7.4 or pH 5.4, for 300 sec. Association and dissociation phase curves were examined for the starting ABPC antibody (with no substitutions) and each corresponding antibody variant at pH 5.4 and pH 7.4 to inform on two criteria: a) enhanced dissociation (i.e., higher koff values) at pH 5.4 due to histidine or alanine substitution compared to the starting ABPC, (with no substitutions), and b) reduced dissociation at pH 7.4 (i.e., lower koff values) compared to pH 5.4 in the antibody variant itself and with the starting ABPC (with no substitutions). […] It was also noted that while some mutations obliterated TROP2 binding, others were tolerated with little or n change in TROP2 binding kinetics.
Turning to B15, the binding result is on record as “binds”.
As to B16, the binding result is given as “no binding (tested: 50 nM)”.
On to B17, for which the binding result is given as “no binding (tested: 50 nM)”.

A further assay has as its target T4, Human TROP2 Protein, His Tag (Acro …). In words: BLI (Octet) [2/2]. The protocol:
as §1
Regarding B18, the binding result is listed as “binds”.
Regarding B19, the binding result is recorded as “binds”.
In the case of B20, the binding result is recorded as “no binding (tested: 50 nM)”.
On the same count and under the same terms, then B21, with “binds”.
Take B22: the binding result is “binds”.
Still for that read-out and setting: in the case of B23 it was “no binding (tested: 50 nM)”.
Consider B24, for which the binding result is reported as “binds”.
Consider B25, for which the binding result is given as “binds”.
Take B26: the binding result is “binds”.
As for B27, the binding result is on record as “binds”.
Turning to B28, the binding result is given as “binds”.
The same measure, in the same setting: in the case of B29 it was “binds”.
Turning to B30, the binding result is given as “binds”.
On to B31, for which the binding result is given as “binds”.

(Values after patent US20260274985A1 (MYTHIC THERAPEUTICS, published 2026).)
